US20220185903A1, “Novel bispecific binding molecule and drug conjugate thereof” (priority 2019, published 2022)
Where a SMILES comes first, the peptide text is derived from it. [ ]: non-standard residue; d: D form. The star is where a group is joined. Dolaproine = CO[C@@H]([C@@H]1CCCN1)[C@@H](C)C(=O)O; Dil = CC[C@H](C)[C@H](NC)[C@@H](CC(=O)O)OC; X1 = C[C@@H](N*)[C@@H](O)c1ccccc1; NMeV = CN[C@H](C(=O)O)C(C)C

Key:
[1] = system: CD20−/CXCR4+ Jurkat cells; test: Killing activity of ADC on co-cultured Ramos/Jurkat cells: Jurkat count; format: cell-based; conditions: co-cultured Ramos/Jurkat 1:1, 72 hours, flow cytometer count
Method: (§1) 6.2 Analysis of Killing Activity of ADC on Co-Cultured Ramos/Jurkat Cells
(§2) Ramos and Jurkat cells (RPMI 1640 medium containing 10% FBS and 1% double antibody) were cultured, respectively. Jurkat cells were stained with calcein-AM (eBioscience) and Ramos cells stained with Celltracker Organge CMTMR (Invitrogen) according to protocols provided by the manufacturer, followed by washed for three times with PBS. After cell count, Ramos and Jurkat cells were mixed at a ratio of 1:1, and 2×10^4 Ramos/Jurkat mixed cells were added to a U-shaped bottom 96-well plate (90 ul/well). 10 ul of SYN-AC, RTX or RXT-AC with different concentrations was added to the 96-well plate above, and incubated at 37° C., 5% CO2 for 72 hours. The numbers of the Ramos and Jurkat cells were counted with a flow cytometer (BD LSR II with a BD high throughput Sampler (HTS)).

CD20+/CXCR4+ Ramos cells = test: Killing activity of ADC on co-cultured Ramos/Jurkat cells: Ramos count; format: cell-based
Method: as §1, §2

CXCR4 [2] = target: T1, CXCR4 (UniProt P61073 1-352, limits assumed); test: flow cytometry on CXCR4+/CD20- Jurkat cells, PE-anti-human Fc detection
T1 construct: whole, on cells; Endogenous on human cell lines; also called CD184
Method: (§3) The CXCR4⁺/CD20⁻ Jurkat cells and CXCR4^dim/CD20⁺JAB cells were cultured in RPMI 1640 medium containing 10% FBS and […]). Cells were collected by centrifugation, and washed with PBS for 3-4 times. After blocked by 1% BSA (in PBS) at 4° C. for 1 h, the cells were resuspended with PBS with 1% BSA at a density of 5×10⁵/100 μL. […] After being washed with PBS with 1% BSA for 3 times, cells were resuspended with PBS/1% BSA containing a PE-anti-human Fc antibody (Clone HP6017, Biolegend, CA), and incubated at 4° C. for 2 hours. Then an LSR II flow cytometer (Becton Dickinson, N.J.) was applied, and FlowJo software (TreeStar, OR) was used for analysis. Data was analyzed by nonlinear regression using a log (agonist) vs. response model in Prizm Graphpad software.

CD20 = target: T2, CD20 (UniProt P11836 1-297, limits assumed); test: cell-based or functional assay
T2 sequence (looked up): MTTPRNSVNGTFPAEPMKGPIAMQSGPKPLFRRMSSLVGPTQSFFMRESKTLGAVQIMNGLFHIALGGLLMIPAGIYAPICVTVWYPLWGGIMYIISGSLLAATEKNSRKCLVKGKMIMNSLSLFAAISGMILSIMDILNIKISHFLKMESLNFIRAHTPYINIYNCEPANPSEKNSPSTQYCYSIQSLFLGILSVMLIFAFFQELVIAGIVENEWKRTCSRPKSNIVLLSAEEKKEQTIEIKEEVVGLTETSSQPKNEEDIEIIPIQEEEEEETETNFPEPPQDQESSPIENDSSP

CXCR4 [3] = target: T1, CXCR4; test: flow cytometry on CXCR4+/CD20- Jurkat cells
Method: as §3

CXCR4 [4] = target: T1, CXCR4; test: cell-based or functional assay

T1 sequence (P61073 whole entry): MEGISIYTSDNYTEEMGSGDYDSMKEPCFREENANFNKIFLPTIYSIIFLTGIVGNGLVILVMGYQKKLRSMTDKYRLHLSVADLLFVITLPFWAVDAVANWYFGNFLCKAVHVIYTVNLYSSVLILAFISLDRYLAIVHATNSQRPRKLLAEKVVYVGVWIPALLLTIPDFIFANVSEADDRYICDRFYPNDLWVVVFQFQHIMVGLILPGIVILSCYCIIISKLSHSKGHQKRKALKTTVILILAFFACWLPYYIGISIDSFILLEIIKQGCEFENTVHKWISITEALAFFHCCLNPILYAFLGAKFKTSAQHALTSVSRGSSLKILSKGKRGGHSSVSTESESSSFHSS

CC[C@H](C)[C@@H]([C@@H](CC(=O)N1CCC[C@H]1[C@H](OC)[C@@H](C)C(=O)N[C@H](C)[C@@H](O)c1ccccc1)OC)N(C)C(=O)[C@@H](NC(=O)[C@@H](NC)C(C)C)C(C)C [MMAE, monomethylalistatin E, reference compound] (H-[NMeV]V[Dil][Dolaproine]-X1)
EC50 [1]: 24.5 ± 6.8 nM | TI (therapeutic index) (CD20+/CXCR4+ Ramos cells; co-cultured Jurkat and Ramos cells, selectivity Jurkat vs Ramos): 2.7 | EC50 (CD20+/CXCR4+ Ramos cells; co-cultured Ramos/Jurkat 1:1, 72 hours, flow cytometer count): 9.1 ± 3.8 nM

B1: RTX (Rituxan, anti-CD20 antibody) (antibody, V domains shown)
VH: QVQLQQPGAELVKPGASVKMSCKASGYTFTSYNMHWVKQTPGRGLEWIGAIYPGNGDTSYNQKFKGKATLTADKSSSTAYMQLSSLTSEDSAVYYCARSTYYGGDWYFNVWGAGTTVTVSA
VL: QIVLSQSPAILSASPGEKVTMTCRASSSVSYIHWFQQKPGSSPKPWIYATSNLASGVPVRFSGSGSGTSYSLTISRVEAEDAATYYCQQWTSNPPTFGGGTKLEIKR
notes: Rituxan Fab heavy chain cloned into pFuse-hIgG1-Fc carrying E233P/L234V/L235A/deltaG236+A327G/A330S/P331S; expressed in HEK293
binding result (CXCR4 [2]): no binding

B2: RTX-MMAE (RTX conjugated with NHS-PEG4-MMAE) (other)
heavy: QVQLQQPGAELVKPGASVKMSCKASGYTFTSYNMHWVKQTPGRGLEWIGAIYPGNGDTSYNQKFKGKATLTADKSSSTAYMQLSSLTSEDSAVYYCARSTYYGGDWYFNVWGAGTTVTVSAASTKGPSVFPLAPSSKSTSGGTAALGCLVKDYFPEPVTVSWNSGALTSGVHTFPAVLQSSGLYSLSSVVTVPSSSLGTQTYICNVNHKPSNTKVDKKVEPKSCDKTHTCPPCPAPPVAGPSVFLFPPKPKDTLMISRTPEVTCVVVDVSHEDPEVKFNWYVDGVEVHNAKTKPREEQYNSTYRVVSVLTVLHQDWLNGKEYKCKVSNKGLPSSIEKTISKAKGQPREPQVYTLPPSRDELTKNQVSLTCLVKGFYPSDIAVEWESNGQPENNYKTTPPVLDSDGSFFLYSKLTVDKSRWQQGNVFSCSVMHEALHNHYTQKSLSLSPGK
light: QIVLSQSPAILSASPGEKVTMTCRASSSVSYIHWFQQKPGSSPKPWIYATSNLASGVPVRFSGSGSGTSYSLTISRVEAEDAATYYCQQWTSNPPTFGGGTKLEIKRTVAAPSVFIFPPSDEQLKSGTASVVCLLNNFYPREAKVQWKVDNALQSGNSQESVTEQDSKDSTYSLSSTLTLSKADYEKHKVYACEVTHQGLSSPVTKSFNRGEC
modifications: conjugated with NHS-PEG4-MMAE, 0 to 2 per light chain by MS; sites not stated; conjugated with NHS-PEG4-MMAE, 0 to 2 per heavy chain by MS; sites not stated
EC50 (nM), killing of Ramos cells in co-cultured Ramos/Jurkat cells, 72 h (CD20): 6 nM

B3: RTX-AC (Rituxan with the CXCR4 antagonistic peptide inserted into the constant region of the light chain) (bispecific antibody, human IgG1, kappa)
heavy: QVQLQQPGAELVKPGASVKMSCKASGYTFTSYNMHWVKQTPGRGLEWIGAIYPGNGDTSYNQKFKGKATLTADKSSSTAYMQLSSLTSEDSAVYYCARSTYYGGDWYFNVWGAGTTVTVSAASTKGPSVFPLAPSSKSTSGGTAALGCLVKDYFPEPVTVSWNSGALTSGVHTFPAVLQSSGLYSLSSVVTVPSSSLGTQTYICNVNHKPSNTKVDKKVEPKSCDKTHTCPPCPAPPVAGPSVFLFPPKPKDTLMISRTPEVTCVVVDVSHEDPEVKFNWYVDGVEVHNAKTKPREEQYNSTYRVVSVLTVLHQDWLNGKEYKCKVSNKGLPSSIEKTISKAKGQPREPQVYTLPPSRDELTKNQVSLTCLVKGFYPSDIAVEWESNGQPENNYKTTPPVLDSDGSFFLYSKLTVDKSRWQQGNVFSCSVMHEALHNHYTQKSLSLSPGK
light: QIVLSQSPAILSASPGEKVTMTCRASSSVSYIHWFQQKPGSSPKPWIYATSNLASGVPVRFSGSGSGTSYSLTISRVEAEDAATYYCQQWTSNPPTFGGGTKLEIKRTVAAPSVFIFPPSDEQLKSGTASVVCLLNNFYPREAKVQWKVDNALQSGNSQESVTEQDSGGSGAKLAALKAKLAALKGGGGSYRKCRGGRRWCYQKGGGGSELAALEAELAALEAGGSGDSTYSLSSTLTLSKADYEKHKVYACEVTHQGLSSPVTKSFNRGEC
notes: hIgG1 Fc with E233P/L234V/L235A/deltaG236+A327G/A330S/P331S; also called RXT-AC
binding result (CXCR4 [3]): binds

B4: RTX-AC-MMAE (RTX-AC conjugated with NHS-PEG4-MMAE) (other)
heavy: QVQLQQPGAELVKPGASVKMSCKASGYTFTSYNMHWVKQTPGRGLEWIGAIYPGNGDTSYNQKFKGKATLTADKSSSTAYMQLSSLTSEDSAVYYCARSTYYGGDWYFNVWGAGTTVTVSAASTKGPSVFPLAPSSKSTSGGTAALGCLVKDYFPEPVTVSWNSGALTSGVHTFPAVLQSSGLYSLSSVVTVPSSSLGTQTYICNVNHKPSNTKVDKKVEPKSCDKTHTCPPCPAPPVAGPSVFLFPPKPKDTLMISRTPEVTCVVVDVSHEDPEVKFNWYVDGVEVHNAKTKPREEQYNSTYRVVSVLTVLHQDWLNGKEYKCKVSNKGLPSSIEKTISKAKGQPREPQVYTLPPSRDELTKNQVSLTCLVKGFYPSDIAVEWESNGQPENNYKTTPPVLDSDGSFFLYSKLTVDKSRWQQGNVFSCSVMHEALHNHYTQKSLSLSPGK
light: QIVLSQSPAILSASPGEKVTMTCRASSSVSYIHWFQQKPGSSPKPWIYATSNLASGVPVRFSGSGSGTSYSLTISRVEAEDAATYYCQQWTSNPPTFGGGTKLEIKRTVAAPSVFIFPPSDEQLKSGTASVVCLLNNFYPREAKVQWKVDNALQSGNSQESVTEQDSGGSGAKLAALKAKLAALKGGGGSYRKCRGGRRWCYQKGGGGSELAALEAELAALEAGGSGDSTYSLSSTLTLSKADYEKHKVYACEVTHQGLSSPVTKSFNRGEC
modifications: conjugated with NHS-PEG4-MMAE, 0 to 2 per light chain by MS; sites not stated; conjugated with NHS-PEG4-MMAE, 0 to 3 per heavy chain by MS; sites not stated
EC50 (nM), killing of Ramos cells in co-cultured Ramos/Jurkat cells, 72 h (CD20): 0.29 nM | EC50 (nM), killing of Ramos cells in co-cultured Ramos/Jurkat cells, 72 h (CXCR4 [4]): 0.29 nM

B5: SYN-AC-MMAE (SYN-AC conjugated with NHS-PEG4-MMAE) (other)
heavy: QVTLRESGPALVKPTQTLTLTCTFSGFSLSTSGMSVGWIRQPPGKALEWLADIWWDDKKDYNPSLKSRLTISKDTSKNQVVLKVTNMDPADTATYYCARSMITNWYFDVWGAGTTVTVSSASTKGPSVFPLAPSSKSTSGGTAALGCLVKDYFPEPVTVSWNSGALTSGVHTFPAVLQSSGLYSLSSVVTVPSSSLGTQTYICNVNHKPSNTKVDKKVEPKSCDKTHTCPPCPAPPVAGPSVFLFPPKPKDTLMISRTPEVTCVVVDVSHEDPEVKFNWYVDGVEVHNAKTKPREEQYNSTYRVVSVLTVLHQDWLNGKEYKCKVSNKGLPSSIEKTISKAKGQPREPQVYTLPPSRDELTKNQVSLTCLVKGFYPSDIAVEWESNGQPENNYKTTPPVLDSDGSFFLYSKLTVDKSRWQQGNVFSCSVMHEALHNHYTQKSLSLSPGK
light: DIQMTQSPSTLSASVGDRVTITCKCQLSVGYMHWYQQKPGKAPKLLIYDTSKLASGVPSRFSGSGSGTEFTLTISSLQPDDFATYYCFQGSGYPFTFGGGTKLEIKRTVAAPSVFIFPPSDEQLKSGTASVVCLLNNFYPREAKVQWKVDNALQSGNSQESVTEQDSGGSGAKLAALKAKLAALKGGGGSYRKCRGGRRWCYQKGGGGSELAALEAELAALEAGGSGDSTYSLSSTLTLSKADYEKHKVYACEVTHQGLSSPVTKSFNRGEC
modifications: conjugated with NHS-PEG4-MMAE, 0 to 2 per light chain by MS; sites not stated; conjugated with NHS-PEG4-MMAE, 0 to 2 per heavy chain by MS; sites not stated
EC50 (nM), killing of Jurkat cells in co-cultured Ramos/Jurkat cells, 72 h (CXCR4 [4]): 21 nM | EC50 (nM), killing of Ramos cells in co-cultured Ramos/Jurkat cells, 72 h (CXCR4 [4]): 12.6 nM

B6: SYN-AC (Synagis, anti-RSV, with the CXCR4 antagonistic peptide inserted into the constant region of the light chain) (bispecific antibody, human IgG1, kappa)
heavy: QVTLRESGPALVKPTQTLTLTCTFSGFSLSTSGMSVGWIRQPPGKALEWLADIWWDDKKDYNPSLKSRLTISKDTSKNQVVLKVTNMDPADTATYYCARSMITNWYFDVWGAGTTVTVSSASTKGPSVFPLAPSSKSTSGGTAALGCLVKDYFPEPVTVSWNSGALTSGVHTFPAVLQSSGLYSLSSVVTVPSSSLGTQTYICNVNHKPSNTKVDKKVEPKSCDKTHTCPPCPAPPVAGPSVFLFPPKPKDTLMISRTPEVTCVVVDVSHEDPEVKFNWYVDGVEVHNAKTKPREEQYNSTYRVVSVLTVLHQDWLNGKEYKCKVSNKGLPSSIEKTISKAKGQPREPQVYTLPPSRDELTKNQVSLTCLVKGFYPSDIAVEWESNGQPENNYKTTPPVLDSDGSFFLYSKLTVDKSRWQQGNVFSCSVMHEALHNHYTQKSLSLSPGK
light: DIQMTQSPSTLSASVGDRVTITCKCQLSVGYMHWYQQKPGKAPKLLIYDTSKLASGVPSRFSGSGSGTEFTLTISSLQPDDFATYYCFQGSGYPFTFGGGTKLEIKRTVAAPSVFIFPPSDEQLKSGTASVVCLLNNFYPREAKVQWKVDNALQSGNSQESVTEQDSGGSGAKLAALKAKLAALKGGGGSYRKCRGGRRWCYQKGGGGSELAALEAELAALEAGGSGDSTYSLSSTLTLSKADYEKHKVYACEVTHQGLSSPVTKSFNRGEC
notes: hIgG1 Fc with E233P/L234V/L235A/deltaG236+A327G/A330S/P331S
binding result (CXCR4 [3]): binds
